Source: article PMC10377191, “The Crystal Structure of the Hsp90-LA1011 Complex and the Mechanism by Which LA1011 May Improve the Prognosis of Alzheimer’s Disease” (Biomolecules, 2023)

Biological target: T1, yeast Hsp90 (yeast, UniProt P02829 1-709)
T1 construct: yeast Hsp90 as used in the ITC experiments; probably the full-length protein was used (surmise)
Assay: ITC; 400 μM FKBP51 or FKBP51-Δ7He injected into 30 μM Hsp90; 20 mM Tris pH 7.5, 5 mM NaCl, 30 °C
Details: both partners purified

T1 sequence (P02829 whole entry): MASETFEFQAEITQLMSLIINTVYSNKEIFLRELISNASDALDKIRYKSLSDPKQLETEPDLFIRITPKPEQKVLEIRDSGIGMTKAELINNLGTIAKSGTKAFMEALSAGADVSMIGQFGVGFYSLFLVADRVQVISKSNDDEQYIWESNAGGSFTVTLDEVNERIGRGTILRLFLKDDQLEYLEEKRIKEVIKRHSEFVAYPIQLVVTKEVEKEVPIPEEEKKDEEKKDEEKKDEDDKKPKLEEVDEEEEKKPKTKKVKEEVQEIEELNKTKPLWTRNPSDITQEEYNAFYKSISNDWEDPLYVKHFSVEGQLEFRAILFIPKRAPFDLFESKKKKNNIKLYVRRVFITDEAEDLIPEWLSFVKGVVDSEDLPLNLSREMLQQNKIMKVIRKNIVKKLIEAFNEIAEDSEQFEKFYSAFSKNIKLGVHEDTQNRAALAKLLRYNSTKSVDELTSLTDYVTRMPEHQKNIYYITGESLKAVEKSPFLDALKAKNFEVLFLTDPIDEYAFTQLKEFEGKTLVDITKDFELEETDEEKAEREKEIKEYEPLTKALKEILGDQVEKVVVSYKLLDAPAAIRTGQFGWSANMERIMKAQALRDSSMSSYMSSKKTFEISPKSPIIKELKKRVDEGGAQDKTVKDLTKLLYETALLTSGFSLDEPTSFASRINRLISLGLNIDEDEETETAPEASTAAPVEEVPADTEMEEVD

Kd: 11.6 µM
stoichiometry N: 1.25 FKBP51-Δ7He per Hsp90
B1: FKBP51-Δ7He (lacking residues 401–457 of the extended 7th helix of the TPR domain) (domain or fragment, UniProt Q13451 1-400, looked up)
chain: MTTDEGAKNNEESPTATVAEQGEDITSKKDRGVLKIVKRVGNGEETPMIGDKVYVHYKGKLSNGKKFDSSHDRNEPFVFSLGKGQVIKAWDIGVATMKKGEICHLLCKPEYAYGSAGSLPKIPSNATLFFEIELLDFKGEDLFEDGGIIRRTKRKGEGYSNPNEGATVEIHLEGRCGGRMFDCRDVAFTVGEGEDHDIPIGIDKALEKMQREEQCILYLGPRYGFGEAGKPKFGIEPNAELIYEVTLKSFEKAKESWEMDTKEKLEQAAIVKEKGTVYFKGGKYMQAVIQYGKIVSWLEMEYGLSEKESKASESFLLAAFLNLAMCYLKLREYTKAVECCDKALGLDSANEKGLYRRGEAQLLMNEFESAKGDFEKVLEVNPQNKAARLQISMCQKKAKE
notes: FKBP51 lacking residues 401–457 (the helical extension of the 7th helix of the TPR domain), that is, ending at residue 400; also called FKBP51-Δ7He mutant; FKBP51 mutant lacking the helical extension; source: gift of constructs from D. Southworth
